Measurements published in article PMC5386471.

Target: Flag-ACRP-hCD40L

amount of transfected CD40-GPI plasmid sufficient to inhibit 50% of CD40-induced NF-κB response (luciferase reporter, 293T cells; CD40L here from 1 ng of co-transfected plasmid): 1.4 ng
Substance: GPI-anchored CD40 ectodomain (from UniProt P25942 21-193)
